These results are taken from patent US20200392228A1 (PANDION OPERATIONS, published 2020).

Changes are numbered by the printed parent chain. Like-named read-outs stand apart in the source and are kept apart here.

Holding throughout (test): cell binding
In assay [1] the target is T1, human MAdCAM expressed on cells (human, UniProt Q13477 19-382).
T1 construct: whole, on cells; also called MADCAM1
T1 sequence (looked up): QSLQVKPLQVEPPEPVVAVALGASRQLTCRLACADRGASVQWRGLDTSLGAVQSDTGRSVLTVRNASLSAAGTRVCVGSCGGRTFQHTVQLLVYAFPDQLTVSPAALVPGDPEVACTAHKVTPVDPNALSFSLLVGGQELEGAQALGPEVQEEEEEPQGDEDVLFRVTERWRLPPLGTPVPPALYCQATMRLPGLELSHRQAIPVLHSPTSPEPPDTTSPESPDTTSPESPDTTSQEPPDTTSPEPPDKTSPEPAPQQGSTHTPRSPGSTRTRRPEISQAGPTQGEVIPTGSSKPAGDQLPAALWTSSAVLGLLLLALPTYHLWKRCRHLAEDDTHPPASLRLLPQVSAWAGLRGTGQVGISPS

The target of assay [2] is T2, mouse MAdCAM expressed on cells (mouse, UniProt Q61826 22-405).
T2 construct: whole, on cells
T2 sequence (looked up): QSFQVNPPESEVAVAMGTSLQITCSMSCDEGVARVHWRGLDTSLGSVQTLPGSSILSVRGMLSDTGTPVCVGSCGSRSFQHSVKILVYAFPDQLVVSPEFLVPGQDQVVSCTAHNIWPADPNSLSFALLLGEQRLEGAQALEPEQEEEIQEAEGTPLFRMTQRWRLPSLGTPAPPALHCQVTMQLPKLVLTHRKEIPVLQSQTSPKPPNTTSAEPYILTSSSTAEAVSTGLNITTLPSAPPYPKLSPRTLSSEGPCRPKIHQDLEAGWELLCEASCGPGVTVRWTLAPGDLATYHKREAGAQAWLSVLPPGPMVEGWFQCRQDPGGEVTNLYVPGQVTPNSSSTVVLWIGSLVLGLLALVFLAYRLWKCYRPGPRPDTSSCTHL

The target of assay [3] is T2, mouse MAdCAM expressed on cells. This is another data set of the same source.

B1: MAdCAM antibody Clone ID 44 of Table 6 (scFv) (scFv)
scFv: EVQLVESGGGLVKPGGSLRLSCAASGFTFSSYWMSWVRQAPGKGLEWVSAIGTGGGTYYAAPVKGRFTISRDDSKNTLYLQMNSLKTEDTAVYYCAREWLVPYYGMDVWGQGTTVTVSSGGGGSGGGGSGGGGSGGGGSDIQMTQSPSSLSASVGDRVTITCRASQSISRWLAWYQQKPGKAPKLLIYGASNLQSGVPSRFSGSGSGTDFTLTISSLQPEDFATYYCQQSYSTPWTFGQGTKVEIK
For the molecule B1, the results for the binding result in assay [1] and in assay [2] were “binds” and “no binding”, respectively.

B2: MAdCAM antibody Clone ID 51 of Table 6 (scFv) (scFv)
scFv: EVQLLESGGGLVQPGGSLRLSCAASGFTFNNYGMNWVRQAPGKGLEWVSRINSDGSSTSYADSVKGRFTISRDNSKNTLYLQMNSLRAEDTAVYYCARGAYYYYYMDVWGQGTLVTVSSGGGGSGGGGSGGGGSGGGGSEIVMTQSPATLSVSPGERATLSCRASQSVSGSYLAWYQQKPGQAPRLLIYATSSRASGIPARFSGSGSGTEFTLTISSLQSEDFAVYYCQQYYSGLTFGQGTKVEIK
Consider B2, for which the values for the binding result in assay [1] and in assay [2] were “binds” and “no binding”, respectively.

B3: MAdCAM antibody Clone ID 43 of Table 6 (scFv) (scFv)
scFv: EVQLLESGGGLVQPGGSLRLSCAASGFTFDDFAMHWVRQAPGKGLEWVSGISGNGDSRYYADSVKGRFTISRDNSKNTLYLQMNSLRAEDTAVYYCARDASYGGNYGMDVWGQGTTVTVSSGGGGSGGGGSGGGGSGGGGSDIQMTQSPSSLSASVGDRVTITCQASQDIRNYLNWYQQKPGKAPKLLIYKASTLESGVPSRFSGSGSGTDFTLTISSLQPEDFATYYCQQANSFPLTFGPGTKVDIK
Turning to B3, the binding result in assay [1] is “binds”; in assay [2], “no binding”.

B4: MAdCAM antibody Clone ID 56 of Table 6 (scFv) (scFv)
scFv: EVQLLESGGGLVQPGGSLRLSCAASGFTFDDYAMHWVRQAPGKGLEWVSAISGGGEDTYYADSVKGRFTISRDNSKNTLYLQMNSLRAEDTAVYYCARDASYGGNYGMDVWGQGTTVTVSSGGGGSGGGGSGGGGSGGGGSDIQMTQSPSSLSASVGDRVTITCQASQDIRNYLNWYQQKPGKAPKLLIYKASSLESGVPSRFSGSGSGTDFTLTISSLQPEDFATYYCQQANSYPVTFGGGTKVEIK
With B4, the binding result in assay [2] is recorded as “no binding”.

B5: MAdCAM antibody Clone ID 50 of Table 6 (scFv) (scFv)
scFv: QVQLVQSGAEVKKPGASVKVSCKASGYTFTSYDINWVRQAPGQGLEWMGWINPNSGTTGYAQKFQGRVTMTRDTSTSTVYMELSSLRSEDTAVYYCARSPYYYYGMDVWGQGTTVTVSSGGGGSGGGGSGGGGSGGGGSDIQMTQSPSSLSASVGDRVTITCRASHFISRWVAWYQQKPGKAPKLLIYAASTLQSGVPSRFSGSGSGTDFTLTISSLQPEDFATYYCQQSYSGISFGPGTKVDIK
For B5, the binding result is “binds” in assay [1] and “no binding” in assay [2].

B6: MAdCAM antibody Clone ID 45 of Table 6 (scFv) (scFv)
scFv: EVQLLESGGGLVQPGGSLRLSCAASGFSVSSNYMSWVRQAPGKGLEWVAGISYDGSSKPYADSVKGRFTISRDNSKNTLYLQMNSLRAEDTAVYYCARSRGIAARPLQHWGQGTLVTVSSGGGGSGGGGSGGGGSGGGGSDIVMTQSPDSLAVSLGERATINCKSSQSVLYSSNNKNYLAWYQQKPGQPPKLLIYWASTRQSGVPDRFSGSGSGTDFTLTISSLQAEDVAVYYCHQYYGHPPTFGGGTKVEIK
Take B6: the results for the binding result in assay [1] and in assay [2] were “binds” and “no binding”, respectively.

B7: MAdCAM antibody Clone ID 46 of Table 6 (scFv) (scFv)
scFv: B6 scFv with W196Q
As to B7, the binding result in assay [1] is on record as “binds”; in assay [2], “no binding”.

B8: MAdCAM antibody Clone ID 40 of Table 6 (scFv) (scFv)
scFv: QVQLVQSGAEVKKPGASVKVSCKASGYTFTSYGISWVRQAPGQGLEWMGIINPRGGSTIFAQKFQGRVTMTRDTSTSTVYMELSSLRSEDTAVYYCARGTRSSGWYGWFDPWGQGTLVTVSSGGGGSGGGGSGGGGSGGGGSDIQMTQSPSSLSASVGDRVTITCRASQGIGNWLAWYQQKPGKAPKLLIYAASNLETGVPSRFSGSGSGTDFTLTISSLQPEDFATYYCQQIHSYPLTFGGGTKVEIK
As to B8, the figures for the binding result in assay [1] and in assay [2] were “binds” and “no binding”, respectively.

B9: MAdCAM antibody Clone ID 25 of Table 6 (scFv) (scFv)
scFv: QVQLVQSGAEVKKPGASVKVSCKASGYTLTTWYMYWVRQAPGQGLEWMGWINPNRGATNYAQKFQGRVTMTRDTSTSTVYMELSSLRSEDTAVYYCAKGDLWGAMDVWGQGTLVTVSSGGGGSGGGGSGGGGSGGGGSDIQMTQSPSSLSASVGDRVTITCRASDNIGSWLAWYQQKPGKAPKLLIYAASSLQSGVPSRFSGSGSGTDFTLTISSLQPEDFATYYCQQGYSTPPTFGQGTKVEIK
For B9, the binding result in assay [2] is “no binding”.

B10: MAdCAM antibody Clone ID 30 of Table 6 (scFv) (scFv)
scFv: B9 scFv
Regarding B10, the binding result in assay [2] was “no binding”.

B11: MAdCAM antibody Clone ID 47 of Table 6 (scFv) (scFv)
scFv: EVQLLESGGGLVQPGGSLRLSCAASGFSFSDYGMHWVRQAPGKGLEWVSAISGSGGSTYYADSVKGRFTISRDNSKNTLYLQMNSLRAEDTAVYYCARDGGWQPAAILDYWGQGTLVTVSSGGGGSGGGGSGGGGSGGGGSDIQMTQSPSSLSASVGDRVTITCRASQGISNNLNWYQQKPGKAPKLLIYDASNLETGVPSRFSGSGSGTDFTLTISSLQPEDFATYYCQQSYSTPLTFGGGTKVEIK
As to B11, the binding result in assay [2] is listed as “no binding”.

B12: MAdCAM antibody Clone ID 48 of Table 6 (scFv) (scFv)
scFv: EVQLLESGGGLVQPGGSLRLSCAASGFTFSDHGMHWVRQAPGKGLEWVSVIYGGESTYYADSVKGRFTISRDNSKNTLYLQMNSLRAEDTAVYYCARDPAVAGGGIFDYWGQGTLVTVSSGGGGSGGGGSGGGGSGGGGSDIQMTQSPSSLSASVGDRVTITCRASQGISNYLAWYQQKPGKAPKLLIYDASNLETGVPSRFSGSGSGTDFTLTISSLQPEDFATYYCQQSYSTCYTFGQGTKLEIK
Consider B12, for which the binding result was “binds” in assay [1] and “no binding” in assay [2].

B13: MAdCAM antibody Clone ID 9 of Table 7 (IgG) (antibody, V domains shown)
VH: QVQLVQSGAEVKKPGASVKVSCKASGYTFTSYYMHWVRQAPGQGLEWMGIINHSGGSTSYAQKFQGRVTMTRDTSTSTVYMELSSLRSEDTAVYYCARPYSGWYFAFDIWGQGTLVTVSS
VL: not shown
notes: IgG format
As to B13, the binding result in assay [3] is on record as “no binding”.

B14: MAdCAM antibody Clone ID 49 of Table 6 (scFv) (scFv)
scFv: QVQLVQSGAEVKKPGASVKVSCKASGDTFTGYYIHWVRQAPGQGLEWMGWINPNSGGTNYAQKFQGRVTMTRDTSTSTVYMELSSLRSEDTAVYYCARSGLWLGSYYGMDVWGQGTLVTVSSGGGGSGGGGSGGGGSGGGGSDIQMTQSPSSLSASVGDRVTITCRASQTISIWLAWYQQKPGKAPKLLIYDASTLQSGVPSRFSGSGSGTDFTLTISSLQPEDFATYYCQQYSSYPLTFGQGTKVEIK
With B14, the binding result in assay [1] is given as “binds”; in assay [2], “no binding”.

B15: MAdCAM antibody Clone ID 3 of Table 6 (scFv) (scFv)
scFv: QVQLVQSGAEVKKPGASVKVSCKASGYPFIGQYLHWVRQAPGQGLEWMGIINPSGGSTSYAQKFQGRVTMTRDTSTSTVYMELSSLRSEDTAVYYCAREGRLSYGMDAWGQGTLVTVSSGGGGSGGGGSGGGGSGGGGSDIQMTQSPSSLSASVGDRVTITCRASQSISSYLAWYQQKPGKAPKLLIYGASTLESGVPSRFSGSGSGTDFTLTISSLQPEDFATYYCQQTWGPPFTFGQGTKLEIK
On to B15, for which the binding result in assay [1] and in assay [2] was “binds” each time.

B16: MAdCAM antibody Clone ID 12 of Table 6 (scFv) (scFv)
scFv: QVQLVQSGAEVKKPGASVKVSCKASGYTFTGYYMHWVRQAPGQGLEWMGWIGPNSGDTNYAQKFQGRVTMTRDTSTSTVYMELSSLRSEDTAVYYCARDLDHNWYFDLWGRGTLVTVSSGGGGSGGGGSGGGGSGGGGSDIVMTQSPLSLPVTPGEPASISCRSSQSLLHSNGYNYLDWYLQKPGQSPQLLIYSSSNRAPGVPDRFSGSGSGTDFTLKISRVEAEDVGVYYCMQALHIPLTFGGGTKVEIK
For the molecule B16, in assay [2], the binding result was “no binding”.

B17: MAdCAM antibody Clone ID 26 of Table 7 (IgG) (antibody, V domains shown)
VH: EVQLLESGGGLVQPGGSLRLSCAASGFTFSSYAMSWVRQAPGKGLEWVSYISSSSTYTNYADSVKGRFTISRDNSKNTLYLQMNSLRAEDTAVYYCARANSSSWYDWYFDLWGQGTLVTVSS
VL: not shown
notes: IgG format
Take B17: the binding result in assay [3] is “no binding”.

B18: MAdCAM antibody Clone ID 27 of Table 7 (IgG) (antibody, V domains shown)
VH: B17 VH with A33Q
VL: not shown
notes: IgG format
Take B18: the binding result in assay [3] is “no binding”.

B19: MAdCAM antibody Clone ID 42 of Table 6 (scFv) (scFv)
scFv: QVQLVQSGAEVKKPGSSVKVSCKASGGTLSRYGVSWVRQAPGQGLEWMGGIIPIFGTTNYAQKFQGRVTITADESTSTAYMELSSLRSEDTAVYYCARDRVYYDSSGYPTWYFDLWGRGTLVTVSSGGGGSGGGGSGGGGSGGGGSEIVMTQSPATLSVSPGERATLSCRASQSVSSSYLAWYQQKPGQAPRLLIYGASTRATGIPARFSGSGSGTEFTLTISSLQSEDFAVYYCQQYGSSPITFGQGTKVEIK
As for B19, the binding result is “binds” in assay [1] and “no binding” in assay [2].
